Assay results published in patent publication US20230227572A1 (HEFEI TG IMMUNOPHARMA, published 2023).
Residue numbers refer to the chain shown, from its start. Names may count otherwise.

T1: human PVRIG protein on the cell membrane surface (human, UniProt Q6DKI7 41-326)
T1 construct: Also used here for the natural PVRIG on NKG cells and human lymphocytes; also called 293T-human PVRIG cell line; PVRIG on NKG cell line
T1 sequence: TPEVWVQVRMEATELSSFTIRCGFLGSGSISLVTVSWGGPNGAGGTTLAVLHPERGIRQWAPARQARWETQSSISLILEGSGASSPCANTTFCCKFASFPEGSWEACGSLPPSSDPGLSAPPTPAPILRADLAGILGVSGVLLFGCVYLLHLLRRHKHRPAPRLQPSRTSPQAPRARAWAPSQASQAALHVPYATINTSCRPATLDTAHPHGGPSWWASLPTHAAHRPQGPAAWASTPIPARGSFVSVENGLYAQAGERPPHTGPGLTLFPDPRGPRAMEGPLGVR

B1: Antibody 3 (antibody, V domains shown)
VH: EVQLQQSGPELVKPGASMKISCKASGYSFTAYTMNWVKQSHGKNLEWIGLINPYNGGTSYNQKFKGKATLTGDKSSSTAYMELLSVTSEDSAVYFCAREGNYYGSRGDFDYWGQGTTLTVSS
VL: DILLTQSPAILSVSPGERVSFSCRASQTIVTNILWYQQRTNGSPRLLIRYASESISGIPSRFSGSGSGTDFTLSINSVESEDIAHYYCQQSHSWPFTFGSGTKLEIK
notes: Murine monoclonal antibody from hybridoma ascites; also called murine antibody Antibody 3
B2: Antibody 2 (antibody, V domains shown)
VH: QVQLQQSGAELTKPGASVKISCKATGYTFSTFAIDWIKQRPGHGLAWIGEILPGGNNTNYNEKFKGKATFTADTSSNTAYMHLSSLTSEDSAVYYCSTYWFAYWGQGTLVTVSA
VL: DIVMTQSPSSLSVSAGEKVTMSCKSSQSLLNSGNQKNYLAWYQQKPGQPPKLLMYGASTRESGVPDRFTGSGSGTDFTLTISSVQAEDLAVYYCQNAHSYPPAFGAGTKLELK
notes: Murine monoclonal antibody from hybridoma ascites; also called murine antibody Antibody 2
B3: Antibody 1 (antibody, V domains shown)
VH: B2 VH with T12M, H43P, G55I
VL: B2 VL with S22T, A103T
notes: Murine monoclonal antibody from hybridoma ascites, purified on Protein G; also called murine antibody Antibody 1
B4: Antibody 4-hu4 (antibody, human IgG4 S228P, kappa, V domains shown)
VH: EVQLVQSGAEVKKPGSSVKVSCKASGGTFSSFSIEWVRQAPGQGLEWIGEILPGSNSTNYNEKFKGRVTFTADESTSTAYMELSSLRSEDTAVYYCSSYWFAYWGQGTLVTVSS
VL: DIVMTQSPDSLAVSLGERATINCKSSQSLLNSGNQKNYLAWYQQKPGQPPKLLIYGASTRESGVPDRFSGSGSGTDFTLTISSLQAEDVAVYYCQNAHSYPPTFGQGTKLEIKR
notes: Humanized Antibody 4; heavy chain IgG4 with S228P already in the entry
B5: Antibody 4-hu6 (antibody, human IgG4 S228P, kappa, V domains shown)
VH: B4 VH with R67K, V68A, E74T, S77N
VL: B4 VL
notes: Humanized Antibody 4; heavy chain IgG4 with S228P already in the entry; also called Antibody 4-hub [sic]
B6: Antibody 4-hu2 (antibody, human IgG4 S228P, kappa, V domains shown)
VH: B4 VH with I48M, F70I
VL: B4 VL
notes: as for B4
B7: Antibody 4-hu11 (antibody, human IgG4 S228P, kappa, V domains shown)
VH: B4 VH with G27Y, R67K, V68A, E74T, S77N
VL: B4 VL
notes: as for B4
B8: Antibody 4-hu1 (antibody, human IgG4 S228P, kappa, V domains shown)
VH: B4 VH with I48M, F70I, S97A, S98R
VL: B4 VL
notes: as for B4
B9: Antibody 4-hu7 (antibody, human IgG4 S228P, kappa, V domains shown)
VH: B4 VH with G27Y, I48M, F70I
VL: B4 VL
notes: as for B4
B10: Antibody 4-hu10 (antibody, human IgG4 S228P, kappa, V domains shown)
VH: B4 VH with G27Y, E74T, S77N
VL: B4 VL
notes: as for B4
B11: Antibody 4-hu5 (antibody, human IgG4 S228P, kappa, V domains shown)
VH: B4 VH with E74T, S77N
VL: B4 VL
notes: as for B4
B12: Antibody 4-hu3 (antibody, human IgG4 S228P, kappa, V domains shown)
VH: B4 VH with I48M
VL: B4 VL
notes: as for B4
B13: Antibody 4-hu8 (antibody, human IgG4 S228P, kappa, V domains shown)
VH: B4 VH with G27Y, I48M
VL: B4 VL
notes: as for B5

target: T2, recombinant human PVRIG-human IgG1 Fc fusion protein (human); test: SPR (Biacore), human PVRIG-human IgG1 Fc on chip, antibody in flow, 1:1 model
T2 construct: no linker is told; also called human PVRIG-Fc fusion protein
Protocol: The binding kinetics and dissociation equilibrium constant (KD) of the antibodies of the present disclosure to human PVRIG were determined using the surface plasmon resonance (Biacore) assay. Briefly, a CMS chip was coated with human PVRIG-human IgG1 Fc fusion protein, and after being blocked, antibody solutions of different concentrations passed through the CMS chip at a fixed flow rate and bound to antigen for 2 min, followed by transfer to dissociation buffer for 6 min for determination of the dissociation rate. The kinetics were analyzed using a 1:1 binding model.

Kd [nM]	koff [s⁻¹]	kon [M⁻¹ s⁻¹]	Binder
0.99	8.82e-05	89100	B1
1.51	0.000137	90500	B2
0.316	4.19e-05	133000	B3
0.236	4.44e-05	188000	B4
≤ 0.00356	≤ 1e-06	281000	B5
0.239	6.38e-05	266000	B6
≤ 0.00422	≤ 1e-06	237000	B7
0.118	2.32e-05	197000	B8
≤ 0.00361	≤ 1e-06	277000	B9
≤ 0.004	≤ 1e-06	250000	B10
0.015	3.54e-06	236000	B11
0.0916	1.95e-05	212000	B12
≤ 0.00505	≤ 1e-06	198000	B13

target: T1, human PVRIG protein on the cell …; test: flow cytometry on 293T-human PVRIG cells, AF647 goat anti-mouse IgG, percent positive cells
Protocol: The activity of murine antibodies from different clones in binding to human PVRIG protein on the cell membrane surface was evaluated by flow cytometry. The experimental procedure was as follows:
The 293T-human PVRIG cell line was harvested, washed with 1×PBS and resuspended, the cells were counted. Then […] were placed into each 1.5 ml Ep tube, the respective murine antibody (Antibody 1, Antibody 2, Antibody 3, or Antibody 4) was added at different concentrations, the mixture was incubated at 4° C. for 30 min, then washed with 1×PBS, and centrifuged at 3,500 rpm for 5 min to harvest the cells. The cell pellet was resuspended in 100 μl of 1×PBS, a AF647-labeled goat anti-mouse IgG antibody (available from Biolegend) was added, the mixture was incubated at 4° C. for 30 min in the dark, followed by washing twice with 1×PBS and harvesting the cells by centrifugation at 3,500 rpm for 5 min. The cell pellet was resuspended with 200 μl of 1×PBS and measured using a flow cytometer (BD LSR II).

EC50 (read off the curve) [µg/mL]	Binder
~0.1	B1
~0.03	B2
~0.02	B3

target: T2, recombinant human PVRIG-human IgG1 Fc …; test: ELISA, plate coated with human PVRIG-human IgG1 Fc at 1.0 µg/ml, HRP goat anti-mouse IgG, OD450
Protocol: The activity of the murine antibodies from different clones in binding to the human PVRIG-Fc fusion protein was evaluated by ELISA. The experimental procedure was as follows:
The recombinant human PVRIG-human IgG1 Fc fusion protein was diluted to 1.0 μg/ml in 1×PBS (phosphate buffer), the dilution was plated onto a 96-well ELISA plate overnight at 4° C. by 100 μl/well, the plate was washed 3 times with PBST (0.05% Tween20-PBS) and blocked with 1% BSA, followed by incubation at 37° C. for 2 h. The plate was washed 3 times with PBST, and murine antibodies (Antibody 1, Antibody 2, Antibody 3, or Antibody 4) diluted in multiple ratios were respectively added to set 8 concentrations, and the mixture was incubated at 37° C. for 1 h using mouse IgG1 (available from Biolegend) as a negative control at 100 μl/well. The plate was washed 3 times with PBST, and 100 μl of horseradish peroxidase (HRP)-labeled goat anti-mouse IgG antibody (available from BOSTER, 1:10,000 dilution) was added to each well, and the mixture was incubated at 37° C. for 1 h. After washing, 100 μl of TMB substrate solution was added to each well for developing for 10 to 15 min in the dark, 100 μl of stop solution (2M H2SO4) was added to each well, the solution was measured with a microplate reader immediately after the reaction stopped, and the absorbance at 450 nm (OD450) was read.
Target sequence in this assay (chain, as listed by the source limits assumed): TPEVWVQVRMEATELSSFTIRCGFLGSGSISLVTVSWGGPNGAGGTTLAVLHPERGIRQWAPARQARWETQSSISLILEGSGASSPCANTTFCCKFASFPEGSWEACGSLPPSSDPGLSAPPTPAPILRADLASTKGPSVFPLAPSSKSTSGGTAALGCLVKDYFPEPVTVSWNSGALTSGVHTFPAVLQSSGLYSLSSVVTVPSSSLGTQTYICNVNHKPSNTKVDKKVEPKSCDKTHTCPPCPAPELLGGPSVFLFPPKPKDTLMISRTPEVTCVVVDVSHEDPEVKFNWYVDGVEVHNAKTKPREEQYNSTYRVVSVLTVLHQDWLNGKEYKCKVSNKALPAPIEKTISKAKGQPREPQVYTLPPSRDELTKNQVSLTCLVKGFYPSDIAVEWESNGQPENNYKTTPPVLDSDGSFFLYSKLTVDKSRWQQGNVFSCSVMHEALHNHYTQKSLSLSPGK

EC50 (read off the curve) [µg/mL]	Binder
~0.02	B1
~0.03	B2
~0.02	B3

target: T1, human PVRIG protein on the cell …; test: flow cytometry on 293T-human PVRIG cells, AF647 mouse anti-human IgG-Fc, percent positive cells
Protocol: The activity of the humanized antibodies in binding to human PVRIG was evaluated by flow cytometry in the experiment.
The 293T-human PVRIG cell line was harvested, and washed and resuspended with 1×PBS to count the cells. Then 2×10^5 cells were placed into each 1.5 ml Ep tube, the respective humanized antibody was added at different concentrations, the mixture was incubated at 4° C. for 30 min, then washed with 1×PBS, and centrifuged at 3,500 rpm for 5 min to harvest the cells. The cell pellet was resuspended in 100 μl of 1×PBS, a AF647-labeled mouse anti-human IgG-Fc antibody (available from Biolegend) was added, the mixture was incubated at 4° C. for 30 min in the dark, followed by washing twice with 1×PBS and harvesting the cells by centrifugation at 3,500 rpm for 5 min. The cell pellet was resuspended with 200 μl of 1×PBS and measured using a flow cytometer (BD LSR II), and the analysis statistical results were shown in FIG. 16. It can be seen that all the humanized antibodies were ablet to specifically bind to the human PVRIG protein on the cell membrane surface.

EC50 (read off the curve) [µg/mL]	Binder
~0.02	B4
~0.003	B7
~0.0005	B10
~0.001	B13
